This note sets out measurements from patent publication US20260078186A1 (HEFEI TG IMMUNOPHARMA, published 2026).

The target in assay [1] is T1, PD-L1 on the surface of tumor cells (human lung adenocarcinoma A549 cells, human melanoma A375 cells) (human, UniProt Q9NZQ7 19-290).
T1 construct: whole, on cells; No PD-L1-negative control cell is described; also called PD-L1 protein on the surface of tumor cells
The assay can be described thus: flow cytometry on A375 and A549 cells. On the procedure: Human melanoma A375 cells and human lung adenocarcinoma A549 cells were diluted to 1×10⁶ cells/mL with PBS and added to 1.5 mL EP tubes at 100 μL/tube. 10 μL/tube of rat serum was added and blocked at 4° C. for 30 minutes. […] 1 mL of PBS was added to the EP tube. The system was centrifuged at 4° C. and 3500 rpm for 5 min. The supernatant was discarded, and the system was washed again with PBS. After centrifugation, the supernatant was discarded, and the cells were resuspended with 100 μL/tube PBS. 1 μL/tube of Alexa-647-labeled rat anti-human secondary antibody (Biolegend) was added and incubated at 4° C. in the dark for 30 min. The system was washed twice with PBS, and the supernatant was discarded after centrifugation. The cells were resuspended with 200 μL/tube PBS and detected by flow cytometry.

Assay [2] concerns the target T2, Human PD-L1-Fc fusion protein (purchased from Acro) (human, UniProt Q9NZQ7 19-238).
T2 construct: extracellular domain; also called PD-L1 fusion protein; PD-L1 extracellular region protein; not shown: Fc part of the bought fusion protein
Put plainly: ELISA, PD-L1-Fc coated at 1 µg/ml; h19B8 binds slightly more strongly than CD3×h19B8.

Assay [3] addresses T2, Human PD-L1-Fc fusion protein …. Put plainly: ELISA.
Assay [4] addresses T1, PD-L1 on the surface of tumor cells …. Put plainly: flow cytometry on A549 cells. On the procedure: 1 mL of PBS was added to the EP tube. […] The supernatant was discarded, and the system was washed again with PBS. […] The system was washed twice with PBS, and the supernatant was discarded after centrifugation. The cells were resuspended with 200 μL/tube PBS and detected by flow cytometry.

Assay [5] concerns the target T2, Human PD-L1-Fc fusion protein …. The assay can be described thus: ELISA, PD-L1-Fc coated at 1 µg/ml, anti-mouse IgG-HRP.
Method: The PBS buffer in the 96-well plate was removed, and the plate was washed 6 times with PBST (pH 7.2 PBS containing 0.1% Tween 20) buffer. PBS/10% BSA was added at 200 μl/well and incubated at 37° C. for 2 h for blocking. The blocking solution was removed, and the plate was washed 6 times with PBST. […] The reaction system was removed, and the plate was washed 6 times with PBST. HRP (horseradish peroxidase)-labeled anti-mouse IgG secondary antibody was diluted with PBST/0.05% BSA at 100 μl/well and incubated at 37° C. for 1 h. After washing the plate 6 times with PBST, 80 μl/well TMB (tetramethylbenzidine) was added and incubated at room temperature for 3 min. 4 M sulfuric acid was added at 80 μl/well to terminate the reaction. The absorbance was read at 450 nm using a microplate reader.

T1 sequence (Q9NZQ7 19-290): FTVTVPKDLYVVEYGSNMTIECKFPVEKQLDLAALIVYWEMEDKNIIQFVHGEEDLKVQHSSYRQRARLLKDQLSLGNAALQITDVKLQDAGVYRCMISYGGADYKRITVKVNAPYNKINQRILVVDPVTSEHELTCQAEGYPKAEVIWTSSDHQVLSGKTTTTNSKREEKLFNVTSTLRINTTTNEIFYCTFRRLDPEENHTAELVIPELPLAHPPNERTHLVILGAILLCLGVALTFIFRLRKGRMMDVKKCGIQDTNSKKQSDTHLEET
T2 sequence (Q9NZQ7 19-238): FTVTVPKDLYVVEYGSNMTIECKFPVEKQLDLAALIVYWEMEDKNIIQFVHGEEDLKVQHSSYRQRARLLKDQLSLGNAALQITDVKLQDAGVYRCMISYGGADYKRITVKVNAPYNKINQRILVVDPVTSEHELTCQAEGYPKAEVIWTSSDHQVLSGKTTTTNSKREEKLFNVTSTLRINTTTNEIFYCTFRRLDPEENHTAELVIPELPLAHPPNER

B1: humanized PD-L1 antibody h19B8-hIgG1LALA (h19B8-hIgG1LALA heavy chain / h19B8-hK light chain) (antibody, V domains shown)
VH: QVQLVQSGAEVKKPGASVKVSCKASGYSFTGYYMHWVRQAPGQGLEWIGRINPYNGATTYSQNFKDRATMTVDTSISTAYMELSRLRSDDTAVYYCVPTGMGYFLMDYWGQGTLVTVSS
VL: DIQLTQSPSFLSASVGDRVTITCKASQDVGSAVVWYQQKPGKAPKLLIYWASTRHTGVPSRFSGSGSGTEFTLTISSLQPEDFATYFCQQFTSYPTFGQGTKLEIKR
notes: also called humanized 19B8 antibody; h19B8 monoclonal antibody
In the case of B1, the binding result in assay [1] and in assay [2] was “binds” in each case.

B2: chimeric antibody 19B8-hIgG1LALA (19B8-hIgG1LALA heavy chain / 19B8-hK light chain) (antibody)
heavy: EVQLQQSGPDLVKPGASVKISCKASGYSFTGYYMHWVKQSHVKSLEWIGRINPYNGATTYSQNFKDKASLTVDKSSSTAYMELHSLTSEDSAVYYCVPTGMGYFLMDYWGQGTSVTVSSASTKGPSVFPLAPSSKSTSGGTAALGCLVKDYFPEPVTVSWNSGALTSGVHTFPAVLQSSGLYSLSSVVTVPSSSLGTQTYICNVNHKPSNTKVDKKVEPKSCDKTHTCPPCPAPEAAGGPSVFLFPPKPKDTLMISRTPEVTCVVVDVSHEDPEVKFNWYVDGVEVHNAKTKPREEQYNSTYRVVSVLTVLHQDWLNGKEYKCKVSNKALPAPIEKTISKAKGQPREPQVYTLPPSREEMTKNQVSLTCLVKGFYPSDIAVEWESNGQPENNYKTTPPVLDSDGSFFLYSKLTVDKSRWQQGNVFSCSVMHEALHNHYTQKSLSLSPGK
light: DIVMTQSHKFMSASVGDRVSITCKASQDVGSAVVWYRQKPGQSPKLLIYWASTRHTGVPDRFTGSGSGTDFTLTISNVQSEDLADYFCQQFTSYPTFGSGTRLEIKRTVAAPSVFIFPPSDEQLKSGTASVVCLLNNFYPREAKVQWKVDNALQSGNSQESVTEQDSKDSTYSLSSTLTLSKADYEKHKVYACEVTHQGLSSPVTKSFNRGEC
notes: Murine 19B8 variable regions on human IgG1 LALA / human kappa constant regions; also called 19B8 chimeric antibody; human-murine chimeric PD-L1 antibody
As to B2, the binding result in assay [1] and in assay [3] was “binds” in each case.

B3: murine 19B8 antibody (19B8-mIgG1 heavy chain / 19B8-mK light chain) (antibody)
heavy: EVQLQQSGPDLVKPGASVKISCKASGYSFTGYYMHWVKQSHVKSLEWIGRINPYNGATTYSQNFKDKASLTVDKSSSTAYMELHSLTSEDSAVYYCVPTGMGYFLMDYWGQGTSVTVSSAKTTPPSVYPLAPGSAAQTNSMVTLGCLVKGYFPEPVTVTWNSGSLSSGVHTFPAVLQSDLYTLSSSVTVPSSPRPSETVTCNVAHPASSTKVDKKIVPRDCGCKPCICTVPEVSSVFIFPPKPKDVLTITLTPKVTCVVVDISKDDPEVQFSWFVDDVEVHTAQTQPREEQFNSTFRSVSELPIMHQDWLNGKEFKCRVNSAAFPAPIEKTISKTKGRPKAPQVYTIPPPKEQMAKDKVSLTCMITDFFPEDITVEWQWNGQPAENYKNTQPIMNTNGSYFVYSKLNVQKSNWEAGNTFTCSVLHEGLHNHHTEKSLSHSPGK
light: DIVMTQSHKFMSASVGDRVSITCKASQDVGSAVVWYRQKPGQSPKLLIYWASTRHTGVPDRFTGSGSGTDFTLTISNVQSEDLADYFCQQFTSYPTFGSGTRLEIKRADAAPTVSIFPPSSEQLTSGGASVVCFLNNFYPKDINVKWKIDGSERQNGVLNSWTDQDSKDSTYSMSSTLTLTKDEYERHNSYTCEATHKTSTSPIVKSFNRNEC
notes: Recombinant murine IgG1/kappa made in ExpiCHO-S cells; also called murine PD-L1 antibody 19B8; murine PD-L1 antibody (19B8)
On to B3, for which the binding result in assay [4] and in assay [5] was “binds” throughout.
